Experimental data reported in patent US20200102389A1.

How the values were obtained:
[1] = molecular target: recombinant soluble human HLA-G β2M MHC class I complex, monomer (human); experiment: SPR (Biacore), reference antibody against monomeric wt HLA-G complex
[2] = molecular target: modified human HLA-G β2M MHC class I complex (HLA-G specific amino acids replaced by HLA-A consensus amino acids) (human); experiment: SPR (Biacore), reference antibody against degrafted HLA-G complex
[3] = molecular target: human HLA-G expressed on cells (JEG3 naturally; SKOV3 HLA-G+ and PA-TU-8902 HLA-G+ transfectants) (human) (UniProt P17693); experiment: flow cytometry, JEG3 cells pre-incubated with antibody, competitor ILT2-Fc chimera

Substance	Kd [1]	koff [1]	kon [1]	t½ [1]	Kd [2]	koff [2]	kon [2]	t½ [2]	Inhibition of ILT2 binding to Jeg3 cells [3]
MEM-G/11 (antibody)	12 nM	0.00085 s⁻¹	74000 M⁻¹ s⁻¹	14 min	13 nM	0.0012 s⁻¹	89000 M⁻¹ s⁻¹	10 min	
MEM/G9 (antibody)	7.7 nM	0.0011 s⁻¹	150000 M⁻¹ s⁻¹	10 min	300 nM	0.036 s⁻¹	120000 M⁻¹ s⁻¹	0.3 min	-27.9%
